Assay [1] has as its target DEVD-cleaving caspases (caspase-3, -6, -7, -8, and -10). Kind of assay: cell-based or functional assay.
Assay [2] addresses T1, recombinant active caspase-3 (PharMingen) (UniProt P42574 29-277, limits assumed).
T1 sequence (looked up): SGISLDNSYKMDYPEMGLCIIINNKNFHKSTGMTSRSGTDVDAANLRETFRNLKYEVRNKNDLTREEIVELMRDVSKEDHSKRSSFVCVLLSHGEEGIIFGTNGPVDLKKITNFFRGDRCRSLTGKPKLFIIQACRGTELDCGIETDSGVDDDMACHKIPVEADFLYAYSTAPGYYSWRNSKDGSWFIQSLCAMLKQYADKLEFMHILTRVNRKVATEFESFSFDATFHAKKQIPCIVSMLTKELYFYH
Kind of assay: in vitro binding, 35S-labeled protein with recombinant active caspase, immunoprecipitation with caspase-specific antibodies, autoradiography. As to the method:
Binding between livin and caspases was tested by incubating ³⁵[S]-methionine-labeled livin with recombinant active caspase-3 and -7, immunoprecipitating with caspase specific antibodies, resolving on SDS-PAGE and visualising by autoradiography. Both caspase-3 and -7 interacted with livin, but not with the deletion mutant DC89 used as a negative control. Survivin, which was previously shown to interact with these caspases using whole cell lysates (Tamm et al., ibid), also bound to both caspases in this in vitro assay.
In vitro binding reactions were performed by combining recombinant active caspase-3 or -7 (PharMingen, San Diego, Calif.) with ³⁵[S]-methionine-labeled survivin or livin (wild-type and the three deletion mutants described herein), prepared using the TNT T7 reticulocyte lysate system (Promega Corp., Madison, Wis.). Samples were incubated with polyclonal antibodies against either caspase-3 or -7 (PharMingen, San Diego, Calif.) in 0.5 ml NETN buffer [20 mM Tris (pH 8.0), 100 mM NaCl, 1 mM EDTA, and 0.2% NP-40] for 1.5 hrs at 4° C. followed by protein G sepharose (Amersham Pharmacia Biotech, Piscataway N.J.) for 30 min. All samples were then washed three times in NETN buffer, boiled in Laemmli buffer, and resolved by 4-20% SDS-PAGE. […]

B1: livin expressed from pcDNA3.1/V5/His-TOPO-livin in transfected HeLa cells, Q96CA5 1-298 (protein, not shown: small tags and cut ends)
chain: MGPKDSAKCLHRGPQPSHWAAGDGPTQERCGPRSLGSPVLGLDTCRAWDHVDGQILGQLRPLTEEEEEEGAGATLSRGPAFPGMGSEELRLASFYDWPLTAEVPPELLAAAGFFHTGHQDKVRCFFCYGGLQSWKRGDDPWTEHAKWFPSCQFLLRSKGRDFVHSVQETHSQLLGSWDPWEEPEDAAPVAPSVPASGYPELPTPRREVQSESAQEPGARDVEAQLRRLQEERTCKVCLDRAVSIVFVPCGHLVCAECAPGLQLCPICRAPVRSRVRTFLS
Take B1: in assay [1], the decrease in caspase activity (DEVD-AFC cleavage) in HeLa cells treated with TNF-a and cycloheximide was 15 to 20%.

B2: livin deletion mutant DC89 (other)
chain: MGPKDSAKCLHRGPQPSHWAAGDGPTQERCGPRSLGSPVLGLDTCRAWDHVDGQILGQLRPLTEEEEEEGAGATLSRGPAFPGMGS
modifications: 35[S]-methionine-labeled
notes: also called DC86; NH2-terminal fragment (amino acids 1-86); not shown: myc-His tag from the vector pcDNA3.1/myc-His
Take B2: in assay [2], the binding result is on record as “no binding”.

The record behind these values is patent publication US20030087319A1 (published 2003).
